The record followed here is patent US20120039915A1.

For the assay, the target named is antigen bound by the GC4 antibody on GBM tumor sphere cells (target antigen not determined). Nature of the assay: FACS on GBM tumor sphere cells at RT, MFI fitted (apparent dissociation constant).

B1: recombinant human GC4 IgG1 (antibody, V domains shown)
VH: QVQLVESGGGLVQPGGSLRLSCAASGFTFGTYDMSWVRQAPGKGLEWVSGISGSGGSTYYADSVKGRFTISRDNSKNTVYLQMNSLRVEDTAVYYCARGGWYSDNWGQGTLVTVSS
VL: SELTQDPAVSVALGQTVRITCQGGSLRSYYASWYQQKPGQAPLLVIYGENNRPSGIPDRFSGSSSGNTASLTITGAQAEDEADYYCHSRDSSGNHVVFGGGTKLTV
As for B1, the Kd amounted to 79.7 nM.
